From patent US9273290B2, “Method for producing phosphite dehydrogenase protein and use thereof” (priority 2011, dated 2016)
Several values for one entry are separate records, joined by “and”; a condition that tells them apart may be missing. Equal values may be shown once.

B1: PtxD4506: fusion protein: phosphite dehydrogenase protein of SEQ ID NO: 1 (from Ralstonia sp. strain 4506), C-terminal labeled with a His tag (protein)
chain: MKPKVVLTHWVHPEIIELLSASADVIPNTTRETLPRSEVIARAKDADALMAFMPDSIDSAFLEECPKLRVIGAALKGYDNFDVNACTRHGVWLTIVPDLLTIPTAELTIGLLLGLTRHMLEGDRQIRSGHFQGWRPTLYGSGLTGKTLGIIGMGAVGRAIAQRLAGFEMNLLYCDPIPLNAEQEKAWHVQRVTLDELLEKCDYVVPMVPMAAETLHLIDATALAKMKTGSYLINACRGSVVDENAVIAALASGKLAGYAADVFEMEEWIRADRPQAIPKALLDNTAQTFFTPHLGSAVKEVRLEIERQAAMNIIQALAGEKPMGAINQPYPGVKAA
modifications: C-terminal His tag; Ralstonia sp. 4506
B2: PtxDPst: fusion protein: phosphite dehydrogenase protein of P stutzeri WM88 (SEQ ID NO: 3), C-terminal labeled with a His tag (protein, listed as Pseudomonas stutzeri)
chain: MLPKLVITHRVHDEILQLLAPHCELMTNQTDSTLTREEILRRCRDAQAMMAFMPDRVDADFLQACPELRVVGCALKGFDNFDVDACTARGVWLTFVPDLLTVPTAELAIGLAVGLGRHLRAADAFVRSGEFQGWQPQFYGTGLDNATVGILGMGAIGLAMADRLQGWGATLQYHEAKALDTQTEQRLGLRQVACSELFASSDFILLALPLNADTQHLVNAELLALVRPGALLVNPCRGSVVDEAAVLAALERGQLGGYAADVFEMEDWARADRPRLIDPALLAHPNTLFTPHIGSAVRAVRLEIERCAAQNIIQVLAGARPINAANRLPKAEPAAC
modifications: C-terminal His tag

Columns and labels:
[1] = Activity of phosphite dehydrogenase protein in the presence of inhibitor (relative OD340); assay type: biochemical; conditions: no inhibitor = 100.0; for relative value of OD340, average: NaCl, average of experiments
Experimental: PtxD4506 and PtxDPst, which were purified with use of the HisTrap column in [3. […] An experimental method was based on a method described in the literature “Costas et al., Journal of Biological Chemistry, 2001, 276, 17429-17436.” The experimental method is briefly described below.
A reaction solution was prepared by mixing 100 μL of 100 mM MOPS-KOH (pH 7.25), 50 μL of 10 mM NAD, 5 μL of 5 mM phosphite, 50 μL of 40 mM inhibitor of various kinds (arsenite, nitrate, sulfate, or NaCl), 294 μL of H2O, and 1 μL of 0.5 mg/mL protein-containing solution (a PtxD4506-containing solution, a PtxDPst-containing solution, or a liquid which contained no protein (negative control)).
The reaction solution was reacted for 60 minutes. Note that the reaction solution containing the PtxD4506-containing solution was reacted at 45° C., and the reaction solution containing the PtxDPst-containing solution was reacted at 30° C. Subsequently, OD340 was measured. A relative value of OD340 of each sample was calculated relative to 100 of a value of OD340 of the reaction solution containing the liquid which contained no protein (negative control). Note that each experiment was conducted 4 times or more, and an average of relative values obtained in the 4 or 5 experiments was also calculated.

[2] = Heat resistance of phosphite dehydrogenase protein (specific activity vs temperature, FIG. 3); assay type: biochemical; conditions: 0.2 mg/mL in 50 mM MOPS pH 7.4, kept at 10° C. to 60° C.; 1 mM NAD+, 1 mM phosphorous acid
Experimental: After the ultracentrifugation, a supernatant was collected to be used as a crude extract for measuring phosphite dehydrogenase activity. A total of 1000 μL of a reaction solution was prepared which contained the crude extract (protein amount: 10 μg), NAD^+ (1 mM), phosphorous acid (1 mM), and a MOPS-KOH buffer (20 mM, pH 7.4). A temperature of the reaction solution was elevated to 45° C., so that a reaction was started. A sample was collected, each in an amount of 100 μL, at predetermined time intervals for a predetermined period of time (0 to 180 minutes), and absorbance (340 nm) of each sample was measured. Phosphite dehydrogenase activity was evaluated in terms of an amount of NADH generated by 1 mg of protein per unit time.
PtxD4506 and PtxDPst, which were purified with use of the HisTrap column in [3. Expression of Phosphite Dehydrogenase Protein Using Escherichia Coli] were examined in terms of heat resistance. The following description discusses how measurement of heat resistance was carried out.
Each of the purified PtxD4506 and PtxDPst was added to 50 mM of a MOPS buffer (pH 7.4) so as to have a final concentration of 0.2 mg/mL. 100 μL of an enzyme solution thus obtained was supplied to a 1.5-mL tube, and 100 μL of mineral oil was added to the enzyme solution in order to prevent evaporation. A temperature of the tube was maintained at 10° C. to 60° C. for 12 hours. […]

[3] = Solubility of His-tagged phosphite dehydrogenase forcibly expressed in E. coli (supernatant vs sediment, SDS-PAGE); assay type: physicochemical, Escherichia coli; conditions: expressed in E. coli Rosetta2 (DE3), disruption buffer 50 mM Tris-HCl pH 7.4, 50 mM NaCl, 0.1% Tween20, centrifuged 15,000 rpm, CBB
Text: By a well-known method, the base sequence of SEQ ID NO: 2 or a phosphite dehydrogenase gene (SEQ ID NO: 4) of P stutzeri WM88 was inserted into a plasmid pET21b (produced by Novagen) (an amino acid sequence of the protein encoded by the base sequence of SEQ ID NO: 4 is shown in SEQ ID NO: 3) to prepare (i) an expression vector of a fusion protein (see “PtxD4506” in FIG. 2) in which the C-terminal of the phosphite dehydrogenase protein of SEQ ID NO: 1 is labeled with a His tag or (ii) an expression vector of a fusion protein (see “PtxDPst” in FIG. 2) in which the C-terminal of the phosphite dehydrogenase protein of P stutzeri WM88 is labeled with a His tag.
A competent cell Rosetta2 (DE3) (produced by Novagen) was transformed by a well-known method with use of each of the expression vectors.
Transformants thus obtained were inoculated on a 200 mL LB culture medium (containing 10 g of polypeptone, 5 g of yeast extract, and 5 g of NaCl per liter of the culture-medium), and were cultured at 37° C. until OD600 reached 0.5. Subsequently, IPTG (isopropyl thiogalactoside) was added to the culture so as to have a concentration of 1 mM. Then, the culture was incubated for another 3 more hours at 28° C.
The culture was centrifuged at 6,000 rpm for 15 minutes, and bacteria, which were sediment, were collected. The bacteria were suspended in a buffer for disruption (50 mM Tris-HCl (pH: 7.4), 50 mM NaCl), and a suspension thus obtained was subjected to an ultrasonic treatment, so that the bacteria were disrupted. Subsequently, Tween20 (Registered Trademark) was added to a resultant solution of the disrupted bacteria so as to have a final concentration of 0.1%, and was left still on ice for 15 minutes. Note that the buffer for disruption containing the disrupted bacteria is indicated as “T” in FIG. 2.
The buffer for disruption containing the disrupted bacteria was centrifuged at 15,000 rpm and 4° C. for 15 minutes. After the centrifugation, a resultant product was divided into a supernatant and sediment. In FIG. 2, the supernatant is indicated as “S” and the sediment is indicated as “I.”
The buffer for disruption (T) containing the disrupted bacteria, the supernatant (S), and the sediment (I) described above were separated by SDS-PAGE. Subsequently, an acrylamide gel was dyed with CBB stain one (produced by Nacalai), and an amount of the phosphite dehydrogenase protein was measured.

[4] = Reaction kinetic analysis of phosphite dehydrogenase protein (NADH production rate vs NAD+ concentration); assay type: biochemical; conditions: ratio PtxD4506 / PtxDPst
Experimental: PtxD4506 and PtxDPst, which were purified with use of the HisTrap column in [3. Expression of Phosphite Dehydrogenase Protein By Using Escherichia Coli], were compared with each other in terms of reaction rate. The following description discusses how measurement of reaction rates was carried out.
Reaction rates of respective PtxD4506 and PtxDPst were calculated on the basis of (Reaction formula 1) shown in the section [Background Art].
Specifically, in the reaction system of (Reaction formula 1), a production rate of NADH was measured with use of 7.5 μg of each of the fusion proteins PtxD4506 and PtxDPst while a concentration of a substrate (NAD^+) was gradually changed from 0.5 μM to 200 μM. […]
Based on the measured concentration of the substrate (NAD^+) and the measured production rate of NADH, values of Km (μM), Vmax (μmol/min/m), Kcat (min^−1), and Kcat/km were calculated in accordance with a well-known enzyme kinetic method (see, for example, “Fundamental Experiment Method of Proteins and Enzymes (2nd revised edition), Nankodo Co., Ltd.”). Note that the experiment was carried out three times, and values of Km, Vmax, Kcat, and Kcat/km were calculated in each of the experiments. Then, for each of Km, Vmax, Kcat, and Kcat/km, an average of the values calculated in the three experiments was obtained and defined as the value of each of Km, Vmax, Kcat, and Kcat/km. […]

Molecule | relative value of OD340 ([1]; NaCl (50 μL of 40 mM in reaction solution), single experiments 1-5, 60 min, PtxD4506 at 45° C., PtxDPst at 30° C.) | relative value of OD340, average [1] | temperature at which specific activity is the highest (optimum temperature) [2] | fusion protein present in the sediment (I) [3] | fusion protein present in the supernatant (S) [3] | Km relative to that of PtxDPst [4]
B1 | 92.6 and 96.9 and 95.7 and 95.9 and 87.1 | 93.6 | about 50 °C | approximately 8.6% | approximately 91.4% | about a third
B2 |  | 89.3 | about 35 °C | approximately 81.6% | approximately 18.4% | 
